Where two headings read alike, the source gives them in different places.
Tests used:
[1] = molecular target: T1, FcγRIIIa extracellular domain with C-terminal His tag (human, UniProt P08637 17-208); experiment: SPR (Biacore), ratio of KD values for FcγRIIIa
T1 construct: extracellular domain; also called FcgRIIIa; CD16A
Source text: (§1) First, it was considered which H chain should be introduced with Y296W. GpH7-TA52 (SEQ ID NO: 44) resulting from the introduction of the mutation Y296W into GpH7-TA7 was constructed, and expressed and prepared in combination with GpH7-B78 according to the method described in Reference Example 1. Furthermore, GpH7-TA58 (SEQ ID NO: 45) resulting from the introduction of Y296W into GpH7-B78 was constructed, and expressed and prepared in combination with GpH7-TA22 according to the method described in Reference Example 1. To assess the effects of combinations with Y296W, the prepared antibodies were compared for the FcγRIIIa-binding activity according to the method described in Reference Example 2 (Table 16).
(§2) Analysis of interaction between objective antibody and the FcγR was carried out using Biacore T100 (GE Healthcare). HBS-EP+ (GE Healthcare) was used as the running buffer, and the measurement temperature was set to 25° C. Chips produced by immobilizing the antigen peptide by the amine coupling method to a Series S Sencor Chip CM5 (GE Healthcare), or alternatively, chips produced by allowing preliminarily biotinylated antigen peptides to interact with and immobilize onto a Series S Sensor Chip SA (certified) (GE Healthcare) were used. Antibodies of interest were captured onto an antigen peptide-immobilized chip, and allowed to interact to each FcγR diluted with running buffer. To regenerate and repeatedly use the chip, the antibodies captured on the chip were washed off by reacting 10 mM glycine-HCl, pH 1.5.

[2] = molecular target: T1, FcγRIIIa extracellular domain with …; experiment: SPR (Biacore), antibody captured, FcγRIIIa as analyte, 1:1 Langmuir kinetic fit
Summary of the method: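 Biacore T100 at 25° C in HBS-EP+; antibodies captured on antigen-peptide chips (amine-coupled CM5 or biotinylated peptide on SA), with FcγR in running buffer flowed over.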

[3] = molecular target: T1, FcγRIIIa extracellular domain with …; experiment: as above; remark: listed apart in the source
Source text: as §1, §2
(§3) The FcγR-binding activity of each antibody was assessed primarily using as an indicator the FcγR-binding activity and dissociation constant for FcγR.

[4] = molecular target: T1, FcγRIIIa extracellular domain with …; experiment: SPR (Biacore), ratio of KD values for FcγRIIIa; remark: listed apart in the source
Protocol: as §2

[5] = molecular target: T1, FcγRIIIa extracellular domain with …; experiment: SPR (Biacore), antibody captured, FcγRIIIa as analyte, 1:1 Langmuir kinetic fit; remark: listed apart in the source
Protocol: as §2, §3

[6] = molecular target: T1, FcγRIIIa extracellular domain with …; experiment: SPR (Biacore), ratio of KD values for FcγRIIIa; remark: listed apart in the source
[7] = molecular target: T1, FcγRIIIa extracellular domain with …; experiment: SPR (Biacore), antibody captured, FcγRIIIa as analyte, 1:1 Langmuir kinetic fit; remark: listed apart in the source
Source text: (§4) Then, GpH7-TA54 (SEQ ID NO: 46) resulting from the introduction of Y296W into GpH7-TA22 was constructed, and expressed and prepared in combination with GpH7-B78 according to the method described in Reference Example 1. Furthermore, GpH7-TA58 (SEQ ID NO: 45) resulting from the introduction of Y296W into GpH7-B78 was constructed, and expressed and prepared in combination with GpH7-TA22 according to the method described in Reference Example 1. To assess the effect of combination with Y296W, the prepared antibodies were compared for the FcγRIIIa-binding activity according to the method described in Reference Example 2 (Table 17).
as §2, §3

[8] = molecular target: T1, FcγRIIIa extracellular domain with …; experiment: SPR (Biacore), ratio of KD values for FcγRIIIa; remark: listed apart in the source
Source text: as §4, §2

[9] = molecular target: T2, FcγRIIIa (human, UniProt P08637 17-208); experiment: SPR (Biacore T100); antibody captured on an antigen peptide chip, FcγRIIIa as analyte; 1:1 Langmuir kinetic fit
T2 construct: extracellular domain; The protein is soluble, His-tagged, and was expressed in FreeStyle293 cells; also called FcgRIIIa; CD16A; not shown: His tag attached to the C terminus
T2 sequence (P08637 17-208): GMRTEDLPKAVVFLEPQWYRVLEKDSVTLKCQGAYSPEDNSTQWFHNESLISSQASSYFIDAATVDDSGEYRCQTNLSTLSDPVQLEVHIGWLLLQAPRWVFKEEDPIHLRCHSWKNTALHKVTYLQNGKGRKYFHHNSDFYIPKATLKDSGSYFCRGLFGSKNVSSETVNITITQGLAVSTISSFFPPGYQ
Protocol: (§5) Then, K334G was also assessed in the same manner. GpH7-TA40 (SEQ ID NO: 47) resulting from the introduction of K334G into GpH7-TA7 was constructed, and expressed and prepared in combination with GpH7-B78 according to the method described in Reference Example 1. Furthermore, GpH7-TA50 (SEQ ID NO: 48) resulting from the introduction of K334G into GpH7-B78 was constructed, and expressed and prepared in combination with GpH7-TA7 according to the method described in Reference Example 1. To assess the effect of combinations with K334G, the prepared antibodies were compared for the FcγRIIIa binding according to the method described in Reference Example 2 (Table 18).
as §2

[10] = molecular target: T2, FcγRIIIa; experiment: SPR (Biacore); KD of GpH7-TA7/GpH7-B78/GpL16-k0 for FcγRIIIa divided by the KD of this antibody
Protocol: as §5
as §2, with “To regenerate and repeatedly use the chip, the antibodies captured on the chip were washed off by reacting 10 mM glycine-HCl, pH 1.5.” left out

T1 sequence (P08637 17-208): as above

KD ratio (KD of GpH7-TA7/GpH7-B78/GpL16-k0 divided by KD of the antibody) [1] [fold]	Kd [2] [nM]	Kd [3] [nM]	KD ratio (KD of GpH7-TA7/GpH7-B78/GpL16-k0 divided by KD of the antibody) [4] [fold]	Kd [5] [nM]	KD ratio 1 (KD of GpH7-G1d/GpL16-k0 divided by KD of the antibody) [6] [fold]	KD ratio 2 (KD of GpH7-A5/GpH7-B3/GpL16-k0 divided by KD of the antibody) [6] [fold]	Kd [7] [nM]	KD ratio (KD of GpH7-TA22/GpH7-B78/GpL16-k0 divided by KD of the antibody) [8] [fold]	Kd [9] [nM]	KD ratio [10]	Binder
1	4.7	4.1	1	4.1	261	347	–	–	–	–	GpH7-TA7/GpH7-B78/GpL16-k0 (antibody, human IgG1, kappa, Heterodimerized anti-glypican-3 IgG1 variant: L234Y/G236W/S298A in one H chain, S239D/A330L/I332E in the other) heavy 1: QVQLVQSGAEVKKPGASVTVSCKASGYTFTDYEMHWIRQPPGEGLEWIGAIDPKTGDTAYSESFQDRVTLTADKSTSTAYMELSSLTSEDTAVYYCTRFYSYTYWGQGTLVTVSSASTKGPSVFPLAPSSKSTSGGTAALGCLVKDYFPEPVTVSWNSGALTSGVHTFPAVLQSSGLYSLSSVVTVPSSSLGTQTYICNVNHKPSNTKVDKKVEPKSCDKTHTCPPCPAPEYLWGPSVFLFPPKPKDTLMISRTPEVTCVVVDVSHEDPEVKFNWYVDGVEVHNAKTKPREEQYNATYRVVSVLTVLHQDWLNGKEYKCKVSNKALPAPIEKTISKAKGQPREPQVYTLPPSRKELTKNQVSLTCLVKGFYPSDIAVEWESNGQPENNYKTTPPVLDSDGSFFLYSKLTVDKSRWQQGNVFSCSVMHEALHNRYTQKSLSLSP heavy 2: QVQLVQSGAEVKKPGASVTVSCKASGYTFTDYEMHWIRQPPGEGLEWIGAIDPKTGDTAYSESFQDRVTLTADKSTSTAYMELSSLTSEDTAVYYCTRFYSYTYWGQGTLVTVSSASTKGPSVFPLAPSSKSTSGGTAALGCLVKDYFPEPVTVSWNSGALTSGVHTFPAVLQSSGLYSLSSVVTVPSSSLGTQTYICNVNHKPSNTKVDKKVEPKSCDKTHTCPPCPAPELLGGPDVFLFPPKPKDTLMISRTPEVTCVVVDVSHEDPEVKFNWYVDGVEVHNAKTKPREEQYNSTYRVVSVLTVLHQDWLNGKEYKCKVSNKALPLPEEKTISKAKGQPREPQVYTLPPSRDELTKNQVSLTCLVKGFYPSDIAVEWESNGQPENNYKTTPPVLDSDGSFFLYSKLTVDKSRWQQGNVFSCSVMHEALHNHYTQESLSLSP light: DIVMTQSPLSLPVTPGEPASISCQASESLVHSNRNTYLHWYLQKPGQSPQLLIYKVSNRFSGVPDRFSGSGSGTDFTLKISRVEAEDVGVYYCSQNTHVPPTFGQGTKVEIERTVAAPSVFIFPPSDEQLKSGTASVVCLLNNFYPREAKVQWKVDNALQSGNSQESVTEQDSKDSTYSLSSTLTLSKADYEKHKVYACEVTHQGLSSPVTKSFNRGEC
–	–	–	3.2	1.3	–	–	1.3	1	–	–	GpH7-TA22/GpH7-B78/GpL16-k0 (antibody, human IgG1, kappa, Heterodimerized anti-glypican-3 IgG1 variant) heavy 1: QVQLVQSGAEVKKPGASVTVSCKASGYTFTDYEMHWIRQPPGEGLEWIGAIDPKTGDTAYSESFQDRVTLTADKSTSTAYMELSSLTSEDTAVYYCTRFYSYTYWGQGTLVTVSSASTKGPSVFPLAPSSKSTSGGTAALGCLVKDYFPEPVTVSWNSGALTSGVHTFPAVLQSSGLYSLSSVVTVPSSSLGTQTYICNVNHKPSNTKVDKKVEPKSCDKTHTCPPCPAPEYLWGPDVFLFPPKPKDTLMISRTPEVTCVVVDVSHEDPEVKFNWYVDGVEVHNAKTKPREEQYNATYRVVSVLTVLHQDWLNGKEYKCKVSNKALPAPIEKTISKAKGQPREPQVYTLPPSRKELTKNQVSLTCLVKGFYPSDIAVEWESNGQPENNYKTTPPVLDSDGSFFLYSKLTVDKSRWQQGNVFSCSVMHEALHNRYTQKSLSLSP heavy 2: QVQLVQSGAEVKKPGASVTVSCKASGYTFTDYEMHWIRQPPGEGLEWIGAIDPKTGDTAYSESFQDRVTLTADKSTSTAYMELSSLTSEDTAVYYCTRFYSYTYWGQGTLVTVSSASTKGPSVFPLAPSSKSTSGGTAALGCLVKDYFPEPVTVSWNSGALTSGVHTFPAVLQSSGLYSLSSVVTVPSSSLGTQTYICNVNHKPSNTKVDKKVEPKSCDKTHTCPPCPAPELLGGPDVFLFPPKPKDTLMISRTPEVTCVVVDVSHEDPEVKFNWYVDGVEVHNAKTKPREEQYNSTYRVVSVLTVLHQDWLNGKEYKCKVSNKALPLPEEKTISKAKGQPREPQVYTLPPSRDELTKNQVSLTCLVKGFYPSDIAVEWESNGQPENNYKTTPPVLDSDGSFFLYSKLTVDKSRWQQGNVFSCSVMHEALHNHYTQESLSLSP light: DIVMTQSPLSLPVTPGEPASISCQASESLVHSNRNTYLHWYLQKPGQSPQLLIYKVSNRFSGVPDRFSGSGSGTDFTLKISRVEAEDVGVYYCSQNTHVPPTFGQGTKVEIERTVAAPSVFIFPPSDEQLKSGTASVVCLLNNFYPREAKVQWKVDNALQSGNSQESVTEQDSKDSTYSLSSTLTLSKADYEKHKVYACEVTHQGLSSPVTKSFNRGEC
–	–	–	–	–	–	–	–	–	3.4	1.2	GpH7-TA7/GpH7-TA50/GpL16-k0 (antibody, human IgG1, kappa, Heterodimerized anti-glypican-3 IgG1 antibody; also called TA7/TA50) heavy 1: QVQLVQSGAEVKKPGASVTVSCKASGYTFTDYEMHWIRQPPGEGLEWIGAIDPKTGDTAYSESFQDRVTLTADKSTSTAYMELSSLTSEDTAVYYCTRFYSYTYWGQGTLVTVSSASTKGPSVFPLAPSSKSTSGGTAALGCLVKDYFPEPVTVSWNSGALTSGVHTFPAVLQSSGLYSLSSVVTVPSSSLGTQTYICNVNHKPSNTKVDKKVEPKSCDKTHTCPPCPAPEYLWGPSVFLFPPKPKDTLMISRTPEVTCVVVDVSHEDPEVKFNWYVDGVEVHNAKTKPREEQYNATYRVVSVLTVLHQDWLNGKEYKCKVSNKALPAPIEKTISKAKGQPREPQVYTLPPSRKELTKNQVSLTCLVKGFYPSDIAVEWESNGQPENNYKTTPPVLDSDGSFFLYSKLTVDKSRWQQGNVFSCSVMHEALHNRYTQKSLSLSP heavy 2: QVQLVQSGAEVKKPGASVTVSCKASGYTFTDYEMHWIRQPPGEGLEWIGAIDPKTGDTAYSESFQDRVTLTADKSTSTAYMELSSLTSEDTAVYYCTRFYSYTYWGQGTLVTVSSASTKGPSVFPLAPSSKSTSGGTAALGCLVKDYFPEPVTVSWNSGALTSGVHTFPAVLQSSGLYSLSSVVTVPSSSLGTQTYICNVNHKPSNTKVDKKVEPKSCDKTHTCPPCPAPELLGGPDVFLFPPKPKDTLMISRTPEVTCVVVDVSHEDPEVKFNWYVDGVEVHNAKTKPREEQYNSTYRVVSVLTVLHQDWLNGKEYKCKVSNKALPLPEEGTISKAKGQPREPQVYTLPPSRDELTKNQVSLTCLVKGFYPSDIAVEWESNGQPENNYKTTPPVLDSDGSFFLYSKLTVDKSRWQQGNVFSCSVMHEALHNHYTQESLSLSP light: DIVMTQSPLSLPVTPGEPASISCQASESLVHSNRNTYLHWYLQKPGQSPQLLIYKVSNRFSGVPDRFSGSGSGTDFTLKISRVEAEDVGVYYCSQNTHVPPTFGQGTKVEIERTVAAPSVFIFPPSDEQLKSGTASVVCLLNNFYPREAKVQWKVDNALQSGNSQESVTEQDSKDSTYSLSSTLTLSKADYEKHKVYACEVTHQGLSSPVTKSFNRGEC

— US20180155451A1 (published 2018)
